Here are results for 167 variants from the RNAGym collection of RNA variant scans (doi:10.7554/elife.80360).

Sequences and labels used below:
B1: HDV Ribozyme (parent)
chain: GGCCGGCAUGGUCCCAGCCUCCUCGCUGGCGCCGGCUGGGCAACAUUCCGAGGGGACCGUCCCCUCGGUAAUGGCGAAUGGGACCCA

Variants of B1 are the subject of the data set. Briefly: self-cleavage, relative activity (ratio to wild type); higher = more cleavage; co-transcriptional.
Take G1C G52A: the self-cleavage came out at 0.166.
In the case of C15A C32G it was 0.107; in that of C24G C61U, 0.166.
G6C C58G: the self-cleavage was 0.133.
Regarding G6U U23A, the self-cleavage was 0.466.
The same measure for U23G G39U: 0.405; for G17C G38U: 0.0898; for C49U G54C: 0.856.
A70U A78U: the self-cleavage is 0.404.
The same measure for A45U C75G: 0.133; for U37A A45G: 0.125.
The same measure for U23A G68U: 1.09; for G53U C63U: 0.895.
The same measure for A71U G76A: 0.932.
Turning to C14A G54C, the self-cleavage amounted to 0.536.
In the case of C21A C58U it was 0.0627; in that of U47G U79A, 0.95; in that of G38A U60C, 0.0272.
In the case of A45U A56G it was 0.806; in that of G6U A51C, 0.656; in that of C21U A43G, 0.0898.
In the case of A42G G74C it was 0.095; in that of C7A C30G, 0.0791.
For G11A C84G, the self-cleavage stood at 0.851.
Consider U72A A78U, for which the self-cleavage was 0.161.
In the case of C26G U65A it was 0.655; in that of C4G U27C, 0.0437.
Take A43C C75G: the self-cleavage is 0.314.
In the case of A51U A78C it was 0.242; in that of C58A C75U, 0.158.
The same measure for C7A C41A: 0.342; for A8C C49G: 0.475; for G29C G55C: 0.0332.
The same measure for G59U G67C: 0.963.
As to G5C A71G, the self-cleavage was 0.0923.
The same measure for G40C G68A: 0.201.
As for G5U C49G, the self-cleavage is 0.0831.
In the case of C14U G28C it was 0.237.
In the case of G39C C62U it was 0.237; in that of A16U G28U, 0.222; in that of G34A A51U, 0.174.
Take U69A A77U: the self-cleavage was determined as 0.591.
In the case of G40C G73U it was 0.233.
The same measure for C15G A45C: 0.217; for G1A G31C: 0.0292.
In the case of G10A U23C it was 0.554; in that of U20G G31U, 0.102; in that of G1U U12C, 0.499.
Turning to G35A A70C, the self-cleavage is 0.434.
In the case of U20C C58U it was 0; in that of C61U G81U, 0.273.
The same measure for A8U G54A: 0.831.
In the case of G31U G52A it was 0.431.
In the case of C22U C61U, the self-cleavage turned out to be 0.62.
In the case of C15G C33A, the self-cleavage was found to be 0.0405.
The same measure for G2A G28A: 0.0107; for C26U G76A: 1.04; for G76U U79C: 0.782.
In the case of G11C G39C it was 0.0489; in that of G50A G59U, 1.18.
The same measure for U65C G73C: 0.283; for C15G U65G: 0.886.
Turning to C4U U9C, the self-cleavage was 0.727.
The same measure for U37C C63G: 0.965; for U47G A56U: 1.11; for U27G C57G: 0.895.
The same measure for G31U U65A: 0.318.
The same measure for C30G C49G: 0.203; for C33G A56C: 0.113; for C36A: 0.147.
As to C15G U79A, the self-cleavage was found to be 0.312.
The same measure for A70U C85G: 0.724; for G74C C86G: 0.201; for C15U A56C: 1.02.
In the case of C4G U79A it was 0.0536.
The same measure for U37A C64G: 0.354; for C41A G68U: 0.561; for C48A A70C: 0.957.
Take A43G C64G: the self-cleavage came out at 0.644.
In the case of C19G C66A it was 0.108; in that of G1C G50U, 0.231.
The same measure for U37G C62U: 0.308; for G35A G53C: 0.65; for C30U A78U: 0.101.
The same measure for G5A G54U: 0.113; for G40C A70C: 0.208; for U9C U69G: 1.22.
Take A42U A83G: the self-cleavage stood at 0.177.
The same measure for A42U A43C: 0.208.
In the case of C21G C58A it was 0.0396; in that of C19G G53U, 0.0542; in that of C36U A70C, 0.849.
The same measure for C24G G38A: 0.0631; for C44A C48U: 0.692.
With C22U C86A, the self-cleavage is 0.779.
In the case of A16U C75A it was 0.111; in that of C32U G80C, 0.132; in that of C57G C62G, 0.87.
The same measure for A43C G81C: 0.0773; for A16C C33G: 0.227.
Turning to C4G G31A, the self-cleavage was 0.0639.
Regarding A56C A83U, the self-cleavage came to 0.192.
The same measure for G29C C33A: 0.0959.
In the case of C3U C19U it was 0.126; in that of U9G G50C, 1.01.
In the case of A45C C84A it was 0.655; in that of U12C U46C, 0.101; in that of U27A G34U, 0.272.
Consider C57A C86U, for which the self-cleavage amounted to 1.06.
The same measure for G5A C19A: 0.0723.
In the case of A42G G73A it was 0.192; in that of A8C G81U, 0.201.
Turning to C7U C15A, the self-cleavage came to 0.256.
In the case of G5U C13A it was 0.217; in that of U27A G38A, 0.
The same measure for C58G G82A: 0.277; for A16G U47G: 1.14.
The same measure for G31A U65G: 0.34.
Consider A51U A83G, for which the self-cleavage was 0.669.
On to C49U G52C, for which the self-cleavage was 0.866.
In the case of G31U it was 0.47; in that of U47C C75G, 0; in that of G53A C63A, 0.819.
As for C48U C62G, the self-cleavage was 0.485.
The same measure for C32G G55C: 0.136; for C13U A70C: 0.453; for G39C U60A: 0.481.
In the case of G5A U72C it was 0.142; in that of U47A C64G, 0.978; in that of G1A U69G, 0.369.
Take C84G C85G: the self-cleavage stood at 0.26.
The same measure for U60A G76A: 1.
In the case of G39A C57U it was 0.665; in that of U12C G29C, 0.0462; in that of C36U G38U, 0.147.
In the case of U27A A77U it was 0.332.
As for U65C U69A, the self-cleavage was found to be 0.989.
In the case of C4G A8G it was 0.346; in that of C22A G50C, 0.354; in that of G11U C48G, 0.212.
In the case of C22G G29U it was 0.217; in that of G50C C86A, 0.929; in that of U46C U65G, 1.09.
The same measure for G10U U12G: 0.172; for G28A G81C: 0.0674; for U12C C26U: 0.776.
Turning to G17A G53A, the self-cleavage turned out to be 1.02.
For the variant U72C G81A, the self-cleavage was determined as 0.356.
In the case of U47A G52U it was 0.845; in that of G11U A45C, 0.0841.
The same measure for G80A A83U: 0.229; for A45U C48A: 0.7.
In the case of G1C G74A it was 0.0678.
For C44A U47G, the self-cleavage is 0.906.
In the case of C30A A42C it was 0.14; in that of C3G C22G, 0; in that of G82C A87G, 0.185.
In the case of G29U U72A it was 0.218; in that of U47C G74A, 0.233.
With C44A U60C, the self-cleavage was determined as 0.831.
Consider G1A C26A, for which the self-cleavage is 0.119.
The same measure for A45U U79C: 0.26.
With C61A G67U, the self-cleavage is 1.12.
C66A A70G: the self-cleavage was 0.745.
The same measure for U20A G34U: 0.
The same measure for G10U G81A: 0.026; for U23G G55A: 0.67.
